# Data as given in the supplement of paper PMC10567573.
# ± gives the standard deviation.
# Experiment: protein stability index of a GFP-peptide fusion (GPS, HEK-293T) (PSI 1-6); higher = more stable
# Settings: c terminus: a fixed tail appended
# 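Note: 24-mer peptide tiles fused after GFP, lentivirally expressed, FACS-sorted into six equal bins by GFP/DsRed ratio, decoded by Illumina sequencing, PSI is the read-weighted mean bin number.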
Sequence,protein stability index (treatment: DMSO),"protein stability index (treatment: MLN4924 1 uM, 8 h)"
YQVAALQGDLASLRAELQGHHAEK [TNFSF13B],3.71 ± 0.14,3.88 ± 0.099
YRHLLEGEDCKLPPQPCATACKPV [KRT36],3.97 ± 0.2,3.93 ± 0.11
YRMRNVHPKPKLVRVLESLLVSLV [CLCN6],2.44 ± 0.75,2.18 ± 0.35
YSKPGLSMRLLESKKGLSFFAFEH [TCF25],2.12 ± 0.33,2.08 ± 0.38
YTAQQDQELDIKKNERLWLLDDSK [NCK2],4.37 ± 0.27,4.65 ± 0.15
YTFGSNQHGQLGTNTRRGSRAPCK [NEK8],4.27 ± 0.52,4.22 ± 0.39
YTVNFLEAKEGDLHRIEIPFKFHM [CARM1],–,3.15 ± 1.1
YTYRDYGHSSSRDDYPSRGYSDRD [RBMX],3.94 ± 0.3,4.02 ± 0.26
YVRPERLSPISHGNTIALFFRSLL [TCF25],2.59 ± 0.4,2.71 ± 0.42
YVYFFCTVPEILVHNIVIFMRTSV [TMEM106C],3.13 ± 0.43,2.92 ± 0.37
YWDGSGHRRTVKMRKGNTMQQFLQ [FAM50A],2.74 ± 0.12,2.72 ± 0.24
